For assay [1], the target named is T1, Mouse UHRF1^ΔMW (3-782) (mouse, UniProt Q8VDF2 3-782).
T1 sequence: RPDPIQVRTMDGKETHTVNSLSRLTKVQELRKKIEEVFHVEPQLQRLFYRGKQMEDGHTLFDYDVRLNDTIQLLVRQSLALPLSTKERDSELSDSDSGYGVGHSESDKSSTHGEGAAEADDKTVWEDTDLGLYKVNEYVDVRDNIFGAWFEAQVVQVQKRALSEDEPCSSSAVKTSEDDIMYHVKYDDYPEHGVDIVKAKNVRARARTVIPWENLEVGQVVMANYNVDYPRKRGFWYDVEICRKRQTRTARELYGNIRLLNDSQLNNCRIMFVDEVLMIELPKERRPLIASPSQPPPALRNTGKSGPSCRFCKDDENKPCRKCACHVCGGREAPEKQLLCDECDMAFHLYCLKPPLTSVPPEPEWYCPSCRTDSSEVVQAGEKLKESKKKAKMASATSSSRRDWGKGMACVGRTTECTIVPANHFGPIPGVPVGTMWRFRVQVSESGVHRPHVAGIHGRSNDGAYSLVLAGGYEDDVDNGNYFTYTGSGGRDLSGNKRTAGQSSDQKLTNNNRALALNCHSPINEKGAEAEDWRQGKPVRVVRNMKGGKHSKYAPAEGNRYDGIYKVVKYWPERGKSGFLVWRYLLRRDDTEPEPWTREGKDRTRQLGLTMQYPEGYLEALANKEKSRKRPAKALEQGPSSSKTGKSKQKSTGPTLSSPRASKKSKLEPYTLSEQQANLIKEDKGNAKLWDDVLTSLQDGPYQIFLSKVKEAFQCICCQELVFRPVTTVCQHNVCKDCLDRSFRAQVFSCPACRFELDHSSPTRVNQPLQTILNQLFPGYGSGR
Briefly: pull-down.

The target in assay [2] is T2, Mouse UHRF1 (1-782), wild-type with the native N terminus (mouse, UniProt Q8VDF2 1-782).
T2 sequence: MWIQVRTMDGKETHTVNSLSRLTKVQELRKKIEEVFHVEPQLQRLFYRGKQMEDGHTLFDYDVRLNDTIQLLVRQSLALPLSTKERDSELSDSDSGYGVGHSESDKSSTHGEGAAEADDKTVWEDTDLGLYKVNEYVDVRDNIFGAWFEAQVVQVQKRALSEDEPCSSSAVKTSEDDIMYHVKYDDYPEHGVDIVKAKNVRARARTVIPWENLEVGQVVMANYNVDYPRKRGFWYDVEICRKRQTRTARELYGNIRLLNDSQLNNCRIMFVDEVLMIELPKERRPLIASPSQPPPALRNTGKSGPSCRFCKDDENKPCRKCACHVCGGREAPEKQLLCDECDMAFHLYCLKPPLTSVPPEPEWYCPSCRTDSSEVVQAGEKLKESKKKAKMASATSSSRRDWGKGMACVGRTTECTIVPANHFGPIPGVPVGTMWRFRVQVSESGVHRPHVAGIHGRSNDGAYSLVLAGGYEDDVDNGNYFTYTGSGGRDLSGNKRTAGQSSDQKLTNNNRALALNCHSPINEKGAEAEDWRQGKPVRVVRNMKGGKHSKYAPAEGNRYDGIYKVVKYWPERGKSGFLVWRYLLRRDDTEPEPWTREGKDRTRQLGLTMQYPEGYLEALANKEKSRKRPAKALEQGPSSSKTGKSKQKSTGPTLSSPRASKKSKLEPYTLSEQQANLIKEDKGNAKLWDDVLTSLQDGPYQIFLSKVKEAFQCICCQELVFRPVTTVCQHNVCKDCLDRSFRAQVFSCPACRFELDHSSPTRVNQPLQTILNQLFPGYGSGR
Briefly: pull-down.

Assay [3] deals with T3, Mouse UHRF1 (1-782) F46A point mutant (mouse, UniProt Q8VDF2 1-782, F46A).
T3 sequence: T2 sequence with F46A
Briefly: pull-down.

Assay [4] concerns the target T2, Mouse UHRF1 (1-782), wild-type with the …. Briefly: cross-linking.
For assay [5], the target named is T1, Mouse UHRF1^ΔMW (3-782). The assay is described as follows: cross-linking.

Substitutions are numbered along the chain they refer to. Names may count otherwise.

B1: GST-UbcH5a (human UBE2D1, wild-type) (enzyme)
chain: not shown
Consider B1, for which the binding result in assay [1], in assay [2] and in assay [3] was “binds” in each case.

B2: GST-UbcH5a S22R (human UBE2D1 S22R) (enzyme)
chain: not shown
For B2, in assay [2], the binding result is given as “binds”.

B3: UbcH5a (human UBE2D1), without GST (enzyme)
chain: not shown
B3: the binding result in assay [4] and in assay [5] was “binds” each time.

The values are drawn from paper PMC6242706 (Molecular Cell, 2018).
